Data published in paper PMC8766458, “Deciphering the mechanism of processive ssDNA digestion by the Dna2-RPA ensemble” (Nature Communications, 2022).

Target: dna2-D657A (nuclease-dead);RPA (Saccharomyces cerevisiae;Saccharomyces …, UniProt P38859;P22336;P26754;P26755 1-1522;1-621;1-273;1-122, D657A|)
Assay: EMSA; ternary complex; EMSA: 25 mM Tris-HCl pH 7.5, 150 mM KCl, 1 mM DTT, 100 µg/mL BSA, 5 nM DNA, 30 °C 10 min, 4% native PAGE in 0.2x TBE; DNA curtains: 50 or 150 mM NaCl, 0.1 nM RPA-GFP
Settings: protein: recombinant;recombinant; tags: His6, FLAG;none; copies: 1;1;1;1; label: 32P 5'-end; 5' overhang 30 nt (dT30), 20 bp duplex

Sequence of dna2-D657A (nuclease-dead);RPA (P38859 whole entry D657A, chain 1 of 4): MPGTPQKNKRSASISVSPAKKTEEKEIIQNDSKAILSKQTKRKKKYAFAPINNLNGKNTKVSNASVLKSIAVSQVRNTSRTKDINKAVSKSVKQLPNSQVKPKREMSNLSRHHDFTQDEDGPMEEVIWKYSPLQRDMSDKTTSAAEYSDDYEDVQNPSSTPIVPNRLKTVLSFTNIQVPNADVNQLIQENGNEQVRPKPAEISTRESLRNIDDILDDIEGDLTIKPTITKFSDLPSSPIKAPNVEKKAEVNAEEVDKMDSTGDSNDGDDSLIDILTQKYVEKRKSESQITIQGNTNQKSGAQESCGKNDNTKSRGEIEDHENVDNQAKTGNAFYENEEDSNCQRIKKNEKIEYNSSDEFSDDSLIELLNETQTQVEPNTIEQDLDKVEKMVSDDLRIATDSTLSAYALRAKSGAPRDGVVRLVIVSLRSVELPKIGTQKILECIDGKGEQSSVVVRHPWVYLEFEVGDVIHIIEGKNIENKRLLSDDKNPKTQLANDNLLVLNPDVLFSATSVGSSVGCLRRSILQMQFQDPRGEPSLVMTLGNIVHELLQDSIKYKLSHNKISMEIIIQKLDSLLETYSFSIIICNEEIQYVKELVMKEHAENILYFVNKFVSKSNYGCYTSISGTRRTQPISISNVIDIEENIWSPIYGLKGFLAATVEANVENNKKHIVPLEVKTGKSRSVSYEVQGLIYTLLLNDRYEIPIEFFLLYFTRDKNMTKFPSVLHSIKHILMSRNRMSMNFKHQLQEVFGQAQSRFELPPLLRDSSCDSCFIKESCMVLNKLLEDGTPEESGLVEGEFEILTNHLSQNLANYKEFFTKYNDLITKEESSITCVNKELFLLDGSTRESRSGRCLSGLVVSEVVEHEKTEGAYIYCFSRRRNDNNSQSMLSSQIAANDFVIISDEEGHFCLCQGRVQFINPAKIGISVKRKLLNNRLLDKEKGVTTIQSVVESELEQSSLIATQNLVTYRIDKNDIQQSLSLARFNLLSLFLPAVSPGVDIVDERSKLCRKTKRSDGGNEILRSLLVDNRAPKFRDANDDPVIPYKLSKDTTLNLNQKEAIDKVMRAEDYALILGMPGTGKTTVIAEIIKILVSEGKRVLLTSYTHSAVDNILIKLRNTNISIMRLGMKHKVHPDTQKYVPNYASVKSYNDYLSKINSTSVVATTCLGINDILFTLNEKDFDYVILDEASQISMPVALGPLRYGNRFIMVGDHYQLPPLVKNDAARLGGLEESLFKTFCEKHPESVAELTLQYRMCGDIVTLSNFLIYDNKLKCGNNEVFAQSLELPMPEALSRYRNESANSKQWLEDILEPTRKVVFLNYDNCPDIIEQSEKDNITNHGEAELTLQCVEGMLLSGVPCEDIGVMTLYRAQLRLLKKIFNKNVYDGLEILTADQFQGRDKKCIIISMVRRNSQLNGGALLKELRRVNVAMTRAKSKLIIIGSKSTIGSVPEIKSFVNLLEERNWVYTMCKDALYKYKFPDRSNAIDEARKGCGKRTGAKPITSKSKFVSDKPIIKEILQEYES
Sequence of dna2-D657A (nuclease-dead);RPA (P22336 whole entry, chain 2 of 4): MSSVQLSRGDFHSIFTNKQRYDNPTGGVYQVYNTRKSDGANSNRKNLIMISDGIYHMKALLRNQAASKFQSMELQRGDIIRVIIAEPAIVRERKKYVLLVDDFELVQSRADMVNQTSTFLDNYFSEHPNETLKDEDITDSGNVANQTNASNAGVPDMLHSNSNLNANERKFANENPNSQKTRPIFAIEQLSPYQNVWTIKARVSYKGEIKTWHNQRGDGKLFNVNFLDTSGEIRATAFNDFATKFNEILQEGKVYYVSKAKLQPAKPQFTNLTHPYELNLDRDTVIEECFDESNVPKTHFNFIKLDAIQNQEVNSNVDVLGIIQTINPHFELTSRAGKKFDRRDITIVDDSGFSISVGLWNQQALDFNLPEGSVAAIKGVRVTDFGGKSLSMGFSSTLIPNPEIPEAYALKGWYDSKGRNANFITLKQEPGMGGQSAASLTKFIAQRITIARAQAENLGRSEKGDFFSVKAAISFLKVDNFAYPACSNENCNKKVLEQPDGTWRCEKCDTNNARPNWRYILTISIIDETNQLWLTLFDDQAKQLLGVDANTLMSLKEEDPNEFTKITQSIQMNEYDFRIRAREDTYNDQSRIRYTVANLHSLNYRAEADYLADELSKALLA
Sequence of dna2-D657A (nuclease-dead);RPA (P26754 whole entry, chain 3 of 4): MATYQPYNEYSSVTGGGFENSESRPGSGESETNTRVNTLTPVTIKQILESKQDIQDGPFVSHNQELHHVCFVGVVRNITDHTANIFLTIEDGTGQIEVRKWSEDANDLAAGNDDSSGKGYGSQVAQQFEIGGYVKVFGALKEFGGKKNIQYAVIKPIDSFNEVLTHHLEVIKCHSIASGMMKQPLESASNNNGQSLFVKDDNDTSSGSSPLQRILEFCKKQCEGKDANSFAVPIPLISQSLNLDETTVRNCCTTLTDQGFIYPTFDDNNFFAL
Sequence of dna2-D657A (nuclease-dead);RPA (P26755 whole entry, chain 4 of 4): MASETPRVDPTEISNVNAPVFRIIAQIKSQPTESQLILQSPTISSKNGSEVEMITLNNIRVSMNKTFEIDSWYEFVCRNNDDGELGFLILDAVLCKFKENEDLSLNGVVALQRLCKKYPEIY

B1: 5'-overhanging dT(30) DNA (S10+S11) (mixed)
DNA 1: TTTTTTTTTTTTTTTTTTTTTTTTTTTTTTTTGATAAGAGGTCATTTGAA
DNA 2: TTCAAATGACCTCTTATCAA
B1: binds.
